Measured values: article PMC4992063, “PARP3 is a sensor of nicked nucleosomes and monoribosylates histone H2BGlu2”
Each block holds one molecule with its values, some of them ahead of it.

How the values were obtained:
[1] = test system: His-tagged cPARP3 (Gallus gallus); assay: negative-stain EM with Ni-NTA nanogold; conditions: NMR: 20 mM Tris-HCl pH 7.0, 125 mM NaCl, 1 mM TCEP, 10% D2O, 303 K, ~300 uM protein, EMSA and EM buffers not given in material
[2] = target: Reconstituted nicked mononucleosome (recombinant histone octamer on 601.2 DNA with a site-specific nick) (Xenopus laevis | not stated); assay: Ni-NTA nanogold labelling with negative-stain electron microscopy; full-length His-tagged cPARP3 incubated for 30 min with intact or nicked nucleosomes; Ni-NTA-conjugated 5 nm gold added at 1:10 (cPARP3-nucleosomes:Ni-gold); negative stain with 2% uranyl acetate
cPARP3 NTD-WGR (1-169) [3] = target: T1, cPARP3 NTD-WGR (1-169) (Gallus gallus, UniProt E1BSI0 1-169); assay: NMR (1H-15N HSQC); NMR: 20 mM Tris-HCl pH 7.0, 125 mM NaCl, 1 mM TCEP, 10% D2O, 303 K, ~300 uM protein; EMSA and EM buffers not given in material; conditions: protein: recombinant; tags: N-terminal His tag (pNIC28-Bsa4) removed by TEV; 15N/13C labelled; 9 bp with 3' overhang 10 nt on S41
T1 sequence: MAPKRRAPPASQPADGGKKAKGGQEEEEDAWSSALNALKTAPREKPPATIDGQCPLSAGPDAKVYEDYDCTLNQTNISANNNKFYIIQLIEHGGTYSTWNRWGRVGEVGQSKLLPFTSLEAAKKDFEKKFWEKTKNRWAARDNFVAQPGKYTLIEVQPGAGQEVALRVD

cPARP3 NTD-WGR (1-169) [4] = target: T1, cPARP3 NTD-WGR (1-169); assay: NMR (1H-15N HSQC titration); protein:DNA 5:1 to 1:2; NMR: 20 mM Tris-HCl pH 7.0, 125 mM NaCl, 1 mM TCEP, 10% D2O, 303 K, ~300 uM protein; EMSA and EM buffers not given in material; conditions: protein: recombinant; tags: N-terminal His tag (pNIC28-Bsa4) removed by TEV; 15N/13C labelled; nicked duplex: S42 (10 nt) and S43 (9 nt) annealed to S41

Molecule: nicked 601.2 mononucleosome
- binding signal (% of nucleosomes with gold particle) ([1]; single nick at nucleotide 45 (Nt.BsmAI)): 85

Molecule: intact 601.2 mononucleosome
- binding signal (% of nucleosomes with gold particle) [1]: 30

- percent of nucleosomes with a co-locating gold particle [2]: 85%
Molecule: Full-length His-tagged chicken PARP3 (from UniProt E1BSI0 1-526) (enzyme)

B1: 10-nt 3'-overhang duplex with recessed 5'-phosphate (dsDNA)
DNA 1: GCACAGCCGTGAGCGATGC
DNA 2: CGGCTGTGC
modifications: 5'-phosphate on S43
- binding result (cPARP3 NTD-WGR (1-169) [3]): binds

B2: 19-bp duplex with 5'-phosphorylated nick (Gap0 NMR) (dsDNA)
DNA 1: GCACAGCCGTGAGCGATGC
DNA 2: GCATCGCTCA
DNA 3: CGGCTGTGC
modifications: 5'-phosphate on S43
- binding result (cPARP3 NTD-WGR (1-169) [4]): binds
